Literature values in patent US9394339B2, “Stabilized formulations of peptides and proteins protecting against non-enzymatic degradation” (Lyotropic Therapeutics, Inc., priority 2007, dated 2016).
Like-named read-outs stand apart in the source and are kept apart here.

[1] = aqueous solution, pH 7.4, 37° C., Tris-HCl buffer

| Molecule | T1/10 (time to 10% degradation by deamidation) [1] | T1/2 (half-life, deamidation) (buffer, pH 7.4) | T1/10 (time to 10% degradation by deamidation) (pH 7.4) |
| --- | --- | --- | --- |
| Transaldolase (1F05): human protein (protein, UniProt P37837 1-337, looked up) Transaldolase: MSSSPVKRQRMESALDQLKQFTTVVADTGDFHAIDEYKPQDATTNPSLILAAAQMPAYQELVEEAIAYGRKLGGSQEDQIKNAIDKLFVLFGAEILKKIPGRVSTEVDARLSFDKDAMVARARRLIELYKEAGISKDRILIKLSSTWEGIQAGKELEEQHGIHCNMTLLFSFAQAVACAEAGVTLISPFVGRILDWHVANTDKKSYEPLEDPGVKSVTKIYNYYKKFSYKTIVMGASFRNTGEIKALAGCDFLTISPKLLGELLQDNAKLVPVLSAKAAQASDLEKIHLDEKSFRWLHNEDQMAVEKLSDGIRKFAADAVKLERMLTERMFNAENGK | 0.21 days | – | – |
| Purine nucleoside phosphorylase (1ULA): human protein (protein, UniProt P00491 1-289, looked up) Purine nucleoside …: MENGYTYEDYKNTAEWLLSHTKHRPQVAIICGSGLGGLTDKLTQAQIFDYGEIPNFPRSTVPGHAGRLVFGFLNGRACVMMQGRFHMYEGYPLWKVTFPVRVFHLLGVDTLVVTNAAGGLNPKFEVGDIMLIRDHINLPGFSGQNPLRGPNDERFGDRFPAMSDAYDRTMRQRALSTWKQMGEQRELQEGTYVMVAGPSFETVAECRVLQKLGADAVGMSTVPEVIVARHCGLRVFGFSLITNKVIMDYESLEKANHEEVLAAGKQAAQKLEQFVSILMASIPLPDKAS | 0.27 days | – | – |
| Dihydropteridine reductase (1HDR): human protein (protein, UniProt P09417 2-244, looked up) Dihydropteridine reductase: AAAAAAGEARRVLVYGGRGALGSRCVQAFRARNWWVASVDVVENEEASASIIVKMTDSFTEQADQVTAEVGKLLGEEKVDAILCVAGGWAGGNAKSKSLFKNCDLMWKQSIWTSTISSHLATKHLKEGGLLTLAGAKAALDGTPGMIGYGMAKGAVHQLCQSLAGKNSGMPPGAAAIAVLPVTLDTPMNRKSMPEADFSSWTPLEFLVETFHDWITGKNRPSSGSLIQVVTTEGRTELTPAYF | 15 days | – | – |
| Procathepsin L (1CS8): human protein (protein, UniProt P07711 18-333, looked up, pro-form) pro-form: TLTFDHSLEAQWTKWKAMHNRLYGMNEEGWRRAVWEKNMKMIELHNQEYREGKHSFTMAMNAFGDMTSEEFRQVMNGFQNRKPRKGKVFQEPLFYEAPRSVDWREKGYVTPVKNQGQCGSCWAFSATGALEGQMFRKTGRLISLSEQNLVDCSGPQGNEGCNGGLMDYAFQYVQDNGGLDSEESYPYEATEESCKYNPKYSVANDTGFVDIPKQEKALMKAVATVGPISVAIDAGHESFLFYKEGIYFEPDCSSEDMDHGVLVVGYGFESTESDNNKYWLVKNSWGEEWGMGGYVKMAKDRRNHCGIASAASYPTV | 7.3 days | – | – |
| Branched-chain -keto acid dehydrogenase (1DTW): human protein (protein, UniProt P12694 46-445; P21953 51-392, looked up) 2-oxoisovalerate … 1: SSLDDKPQFPGASAEFIDKLEFIQPNVISGIPIYRVMDRQGQIINPSEDPHLPKEKVLKLYKSMTLLNTMDRILYESQRQGRISFYMTNYGEEGTHVGSAAALDNTDLVFGQYREAGVLMYRDYPLELFMAQCYGNISDLGKGRQMPVHYGCKERHFVTISSPLATQIPQAVGAAYAAKRANANRVVICYFGEGAASEGDAHAGFNFAATLECPIIFFCRNNGYAISTPTSEQYRGDGIAARGPGYGIMSIRVDGNDVFAVYNATKEARRRAVAENQPFLIEAMTYRIGHHSTSDDSSAYRSVDEVNYWDKQDHPISRLRHYLLSQGWWDEEQEKAWRKQSRRKVMEAFEQAERKPKPNPNLLFSDVYQEMPAQLRKQQESLARHLQTYGEHYPLDHFDK 2-oxoisovalerate … 2: VAHFTFQPDPEPREYGQTQKMNLFQSVTSALDNSLAKDPTAVIFGEDVAFGGVFRCTVGLRDKYGKDRVFNTPLCEQGIVGFGIGIAVTGATAIAEIQFADYIFPAFDQIVNEAAKYRYRSGDLFNCGSLTIRSPWGCVGHGALYHSQSPEAFFAHCPGIKVVIPRSPFQAKGLLLSCIEDKNPCIFFEPKILYRAAAEEVPIEPYNIPLSQAEVIQEGSDVTLVAWGTQVHVIREVASMAKEKLGVSCEVIDLRTIIPWDVDTICKSVIKTGRLLISHEAPLTGGFASEISSTVQEECFLNLEAPISRVCGYDTPFPHIFEPFYIPDKWKCYDALRKMINY | 12 days | – | – |
| Carbonic anhydrase IV (1ZNC): human protein (protein, UniProt P22748 19-284, looked up) Carbonic anhydrase 4: AESHWCYEVQAESSNYPCLVPVKWGGNCQKDRQSPINIVTTKAKVDKKLGRFFFSGYDKKQTWTVQNNGHSVMMLLENKASISGGGLPAPYQAKQLHLHWSDLPYKGSEHSLDGEHFAMEMHIVHEKEKGTSRNVKEAQDPEDEIAVLAFLVEAGTQVNEGFQPLVEALSNIPKPEMSTTMAESSLLDLLPKEEKLRHYFRYLGSLTTPTCDEKVVWTVFREPIQLHREQILAFSQKLYYDKEQTVSMKDNVRPLQQLGQRTVIKS | 11 days | – | – |
| Fructose-1,6-bisphosphatase (1FTA): human protein (protein, UniProt P09467 2-338, looked up) Fructose-1,6-bisphosphatase 1: ADQAPFDTDVNTLTRFVMEEGRKARGTGELTQLLNSLCTAVKAISSAVRKAGIAHLYGIAGSTNVTGDQVKKLDVLSNDLVMNMLKSSFATCVLVSEEDKHAIIVEPEKRGKYVVCFDPLDGSSNIDCLVSVGTIFGIYRKKSTDEPSEKDALQPGRNLVAAGYALYGSATMLVLAMDCGVNCFMLDPAIGEFILVDKDVKIKKKGKIYSLNEGYARDFDPAVTEYIQRKKFPPDNSAPYGARYVGSMVADVHRTLVYGGIFLYPANKKSPNGKLRLLYECNPMAYVMEKAGGMATTGKEAVLDVIPTDIHQRAPVILGSPDDVLEFLKVYEKHSAQ | – | 59 days | 9.0 days |
| Procathepsin K (1BY8): human protein (protein, UniProt P43235 16-329, looked up, pro-form) pro-form: LYPEEILDTHWELWKKTHRKQYNNKVDEISRRLIWEKNLKYISIHNLEASLGVHTYELAMNHLGDMTSEEVVQKMTGLKVPLSHSRSNDTLYIPEWEGRAPDSVDYRKKGYVTPVKNQGQCGSCWAFSSVGALEGQLKKKTGKLLNLSPQNLVDCVSENDGCGGGYMTNAFQYVQKNRGIDSEDAYPYVGQEESCMYNPTGKAAKCRGYREIPEGNEKALKRAVARVGPVSVAIDASLTSFQFYSKGVYYDESCNSDNLNHAVLAVGYGIQKGNKHWIIKNSWGENWGNKGYILMARNKNNACGIANLASFPKM | 4.3 days | – | – |
| Medium chain acyl-coa dehydrogenase (1EGE): human protein (protein, UniProt P11310 26-421, looked up) Medium-chain specific …: KANRQREPGLGFSFEFTEQQKEFQATARKFAREEIIPVAAEYDKTGEYPVPLIRRAWELGLMNTHIPENCGGLGLGTFDACLISEELAYGCTGVQTAIEGNSLGQMPIIIAGNDQQKKKYLGRMTEEPLMCAYCVTEPGAGSDVAGIKTKAEKKGDEYIINGQKMWITNGGKANWYFLLARSDPDPKAPANKAFTGFIVEADTPGIQIGRKELNMGQRCSDTRGIVFEDVKVPKENVLIGDGAGFKVAMGAFDKTRPVVAAGAVGLAQRALDEATKYALERKTFGKLLVEHQAISFMLAEMAMKVELARMSYQRAAWEVDSGRRNTYYASIAKAFAGDIANQLATDAVQILGGNGFNTEYPVEKLMRDAKIYQIYEGTSQIQRLIVAREHIDKYKN | 5.5 days | – | – |
| Ribonuclease A (1AFK): human protein (protein, UniProt P61823 27-150, looked up) Ribonuclease pancreatic: KETAAAKFERQHMDSSTSAASSSNYCNQMMKSRNLTKDRCKPVNTFVHESLADVQAVCSQKNVACKNGQTNCYQSYSTMSITDCRETGSSKYPNCAYKTTQANKHIIVACEGNPYVPVHFDASV | 10 days | – | – |
